T1: human SIGLEC15 on CHO-S-hSIGLEC15 cells (human, UniProt Q6ZMC9 20-328)
T1 sequence: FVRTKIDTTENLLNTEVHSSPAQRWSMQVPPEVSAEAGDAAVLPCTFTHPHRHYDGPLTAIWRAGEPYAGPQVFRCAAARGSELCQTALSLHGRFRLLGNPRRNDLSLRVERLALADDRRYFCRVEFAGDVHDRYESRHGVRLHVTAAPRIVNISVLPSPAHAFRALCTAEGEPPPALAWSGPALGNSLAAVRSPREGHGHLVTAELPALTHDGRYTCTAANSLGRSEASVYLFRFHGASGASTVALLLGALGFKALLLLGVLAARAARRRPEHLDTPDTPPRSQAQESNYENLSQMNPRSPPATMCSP

T2: mouse SIGLEC15 on CHO-S-mSIGLEC15 cells (mouse)
T2 chain: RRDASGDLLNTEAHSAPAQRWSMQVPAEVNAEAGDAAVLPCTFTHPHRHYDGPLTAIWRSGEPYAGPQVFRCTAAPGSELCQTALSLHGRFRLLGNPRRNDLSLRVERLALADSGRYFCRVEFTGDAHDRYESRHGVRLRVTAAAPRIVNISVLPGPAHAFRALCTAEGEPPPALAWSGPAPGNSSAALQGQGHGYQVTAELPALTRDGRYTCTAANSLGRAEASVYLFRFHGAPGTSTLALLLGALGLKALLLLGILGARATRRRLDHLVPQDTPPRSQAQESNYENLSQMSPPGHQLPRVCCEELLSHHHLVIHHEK

T3: dog SIGLEC15 on CHO-S-dSIGLEC15 cells (dog)
T3 chain: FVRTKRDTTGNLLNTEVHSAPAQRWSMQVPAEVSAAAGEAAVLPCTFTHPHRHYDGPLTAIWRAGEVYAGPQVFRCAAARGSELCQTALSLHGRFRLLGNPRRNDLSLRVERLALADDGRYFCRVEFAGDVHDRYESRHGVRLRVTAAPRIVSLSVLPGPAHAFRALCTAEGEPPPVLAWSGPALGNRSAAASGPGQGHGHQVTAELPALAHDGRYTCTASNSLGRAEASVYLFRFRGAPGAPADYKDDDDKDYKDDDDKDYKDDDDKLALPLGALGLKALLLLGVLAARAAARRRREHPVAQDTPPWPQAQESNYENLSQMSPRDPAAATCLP

T4: hSIGLEC15 protein captured in the epitope analysis of Example 4 (human, UniProt Q6ZMC9 20-263, limits assumed)
T4 sequence: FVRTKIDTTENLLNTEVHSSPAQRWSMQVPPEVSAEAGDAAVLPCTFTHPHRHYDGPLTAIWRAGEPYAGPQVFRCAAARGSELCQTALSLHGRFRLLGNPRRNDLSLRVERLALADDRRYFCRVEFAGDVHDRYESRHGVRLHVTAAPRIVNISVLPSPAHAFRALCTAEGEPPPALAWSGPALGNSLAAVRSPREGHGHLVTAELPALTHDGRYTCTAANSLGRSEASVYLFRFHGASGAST


How the values were obtained:
[1] = biological target: T1, human SIGLEC15 on CHO-S-hSIGLEC15 cells; experiment: flow cytometry, CHO-S cells expressing the target
Protocol: (§1) CHO-S-hSIGLEC15 cells, CHO-S-mSIGLEC15 cells, CHO-S-fasSIGLEC15 cells or CHO-S-dSIGLEC15 cells were transferred to a 96-well plate at a density of 5×10⁴ cells/well respectively. Serially diluted sample anti-SIGLEC15 antibodies were added to the 96-well plate, and incubated at 4° C. for 30 min. Then, the cells were incubated with the secondary antibody anti-hIgG-Fc-Alex Flour 647 (RL1-H) (Jackson ImmunoResearch Laboratories, Inc., 109-606-170) at 4° C. in the dark for 15 minutes before flow cytometry analysis.

[2] = biological target: T2, mouse SIGLEC15 on CHO-S-mSIGLEC15 cells; experiment: flow cytometry, CHO-S cells expressing the target
Protocol: as §1

[3] = biological target: T3, dog SIGLEC15 on CHO-S-dSIGLEC15 cells; experiment: flow cytometry, CHO-S cells expressing the target
Protocol: as §1

[4] = biological target: T4, hSIGLEC15 protein captured in the …; experiment: BLI pairwise binning on captured hSIGLEC15, 200 nM each antibody; competitor 10A7
Protocol: (§2) Relative positions of target protein epitope between a pair of purified anti-SIGLEC15 antibodies were analyzed by Biolayer Interferometry (BLI) using ForteBio Octet system at 30° C. A total of 4 purified antibodies were used: 5G12, 10A7, 10C9 and 23F4.
(§3) 1×HBS-EP+ buffer (10 mM 4-(2-hydroxyethyl)-1-piperazineethanesulfonic acid (HEPES), 150 mM NaCl, 3 mM ethylenediaminetetraacetic acid (EDTA) and 0.05% P20, pH7.4) diluted from HBS-EP+ buffer (10×) was used as the running buffer throughout the experiment. About 100 RU of hSIGLEC15 protein was captured at a flow rate of 10 μL/min, and 200 nM of antibody was injected at a flow rate of 30 μL/min to bind the ligand. Another antibody was injected under the same conditions to determine whether the binding of different antibodies interfered with each other. The binding time was 300 s for each antibody.
(§4) The binding value of each antibody was obtained using Data Analysis HT 12.0. To quantify the interference of one antibody binding to another, a binding ratio was calculated to compare each pair of antibodies. The binding ratio is defined as the binding value of the second antibody (analyte 2), divided by the binding value of the first antibody (analyte 1). […] In general, antibody pairs that interfere with each other have the same or overlapping epitopes.

[5] = biological target: T4, hSIGLEC15 protein captured in the …; experiment: BLI pairwise binning on captured hSIGLEC15, 200 nM each antibody; competitor 23F4
Protocol: as §2, §3, §4

[6] = biological target: T4, hSIGLEC15 protein captured in the …; experiment: BLI pairwise binning on captured hSIGLEC15, 200 nM each antibody; competitor 5G12
Protocol: as §2, §3, §4

Binder | Percentage of Positive Cells [1] [%] | Percentage of Positive Cells [2] [%] | Percentage of Positive Cells [3] [%] | binding ratio [4] | binding ratio [5] | binding ratio [6]
anti-SIGLEC15 antibody 10A7 (antibody, human IgG1, V domains shown) VH: EVQLVQSGGGLVQPGGSLRLSCAASGFTFSNYEMNWVRQAPGKGLEWISYISNSGSTIYYADSVKGRFTISRDDAKNSLYLQMNSLRAEDTAVYYCAREDYDSSGYYWFDPWGQGTPVTVSS VL: DIQLTQSPSSVSASVGDRVTITCRASQGISSWLAWYQQKPGKAPKLLIYAASSLQSGVPSRFSGSGSGTDFTLTINSLQPEDFATYYCQQTNSFPLTFGGGTKVEIK | 17.9 | 38.5 | 22.8 | 0.14 | 0.43 | 0.2
anti-SIGLEC15 antibody 10C9 (antibody, human IgG1, V domains shown) VH: QVQLVQSGAEVKKPGATVKVSCKASGYTFTNYGFSWVRQAPGQGLEWMGWINTYNDNTNYAQKFQGRVTMTTDTSTSTAYMELRSLRSDDTAVYYCARDGLWFGELPHYFDYWGQGTLVTVSS VL: DIQLTQSPLSSPVTLGQPASISCRSSQSLVNSDGETFLSWLQQRPGQPPRLLIYKISNRFSGVPDRFSGSGAGTDFTLKISRVEAEDVGVYYCMQATQFPHTFGQGTKLEIK | 16.3 | 29.3 | 37.3 | 0.11 | 0.72 | 0.23
anti-SIGLEC15 antibody 23F4 (antibody, human IgG1, V domains shown) VH: QVQLQQWGAGLLKPSETLSLTCAVYGGSFSGYFWSWIRQPPGKGLEWIGEINHSGSTNYNPSLKSRVTLSVDTSKNQFSLKLSSVTAADTAVYYCAREGDSSSWGNWFDPWGQGTLVTVSS VL: EIVLTQSPGTLSLSPGERATLSCRASQSVSSSYLAWYQQKPGQAPRFLIYGASSRATGIPDRFSGSGSGTDFTLTISRLEPEDFAVYYCQQFGNSPLTFGGGTKVEIK | 25.6 | 40.5 | 24.6 | 0.18 | 0.07 | 0.48

Reference: patent publication US20250361296A1 (BIOCYTOGEN PHARMACEUTICALS BEIJING, published 2025)
